Reference: US20040053278A1 (JAPANESE FOUNDATION FOR CANCER RESEARCH, published 2004)

Key:
[1] = biological target: T1, wild type (wt) HA-tagged TβR-I (UniProt P36897 34-503, limits assumed); assay: affinity cross-linking with 125I-TGF-β1, anti-FLAG immunoprecipitation from COS-7 lysates, SDS-PAGE and autoradiography
T1 construct: whole, on cells; also called wild type TβR-I; TGF-β type I receptor
T1 sequence (looked up): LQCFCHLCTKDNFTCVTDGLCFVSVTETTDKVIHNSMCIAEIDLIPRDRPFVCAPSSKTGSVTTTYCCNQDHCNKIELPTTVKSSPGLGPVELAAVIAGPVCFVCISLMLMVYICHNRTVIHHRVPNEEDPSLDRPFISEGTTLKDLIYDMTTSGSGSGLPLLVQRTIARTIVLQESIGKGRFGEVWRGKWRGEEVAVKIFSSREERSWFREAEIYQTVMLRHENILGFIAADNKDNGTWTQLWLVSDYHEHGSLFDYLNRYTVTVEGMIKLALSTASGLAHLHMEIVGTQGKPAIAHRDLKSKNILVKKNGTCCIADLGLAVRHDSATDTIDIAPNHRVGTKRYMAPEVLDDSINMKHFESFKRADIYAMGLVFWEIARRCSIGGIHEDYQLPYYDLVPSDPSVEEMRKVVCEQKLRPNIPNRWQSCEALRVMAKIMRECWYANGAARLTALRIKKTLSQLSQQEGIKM
Excerpt: The interaction of Smad6 with the type I receptors was examined in affinity cross-linking assays. COS-7 cells were transfected with FLAG-tagged Smad6 (F-Smad6) or FLAG-tagged Smad2 (F-Smad2) in combination with the wild type (wt) or kinase-defective (KR) HA-tagged TβR-I and hexahistidine-tagged TβR-II. Cells were affinity labeled with ¹²⁵I-TGF-β1 and lysates were immunoprecipitated with anti-HA antibody or anti-FLAG M2 antibody. Immune complexes were subjected to SDS-PAGE and autoradiography. Smad6 bound to both wild type and kinase-defective TβR-I depending on the kinase activity of TβR-II. […] Similarly to Smad2, the binding of Smad6 to TβR-I required the kinase activity of TβR-II (FIG. 2a). Smad6, however, stably bound to the wild type TβR-I.

[2] = biological target: T2, Smad6 (epitope-tagged, heteromerization experiment of Example 4) (mouse, UniProt O35182 1-495); assay: co-immunoprecipitation and Western blot from transfected COS-7 cells
T2 construct: Whole coding region of mouse Smad6, expressed inside COS-7 cells
T2 sequence: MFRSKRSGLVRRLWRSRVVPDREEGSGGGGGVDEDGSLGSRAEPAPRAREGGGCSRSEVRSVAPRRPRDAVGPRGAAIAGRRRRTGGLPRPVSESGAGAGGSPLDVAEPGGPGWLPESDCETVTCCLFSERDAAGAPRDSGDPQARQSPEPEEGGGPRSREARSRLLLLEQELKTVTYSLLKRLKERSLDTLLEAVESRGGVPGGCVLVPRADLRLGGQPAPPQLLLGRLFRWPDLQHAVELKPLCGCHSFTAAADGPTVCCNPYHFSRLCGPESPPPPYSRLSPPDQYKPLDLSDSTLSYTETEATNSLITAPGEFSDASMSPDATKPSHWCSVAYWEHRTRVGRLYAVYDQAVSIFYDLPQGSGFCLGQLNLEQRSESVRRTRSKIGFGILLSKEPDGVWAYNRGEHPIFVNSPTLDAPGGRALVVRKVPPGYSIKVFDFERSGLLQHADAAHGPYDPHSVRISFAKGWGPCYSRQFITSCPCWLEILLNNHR
Excerpt: COS-7 cells were transiently transfected using DMRIE-C (Gibco/BRL, Gaithersburg, Md.). [³²P]orthophosphate- or [³⁵]methionine/cysteine-labeling and immunoprecipitation were done as described by Nakao et al. (J. Biol. Chem. 272:2896-2900, 1997). For Western blot of the immunoprecipitated proteins, tagged proteins were detected by chemiluminescence (ECL, Amersham, Arlington Heights, Ill.).
Smad2 heteromerizes with Smad4 upon phosphorylation by TβR-I (Lagna et al., 1996). It was recently shown that TGF-β also induces association of Smad2 and Smad3 (Nakao et al., EMBO. J. 16:5353-5362, 1997). The effect of Smad6 on the heteromerization of these Smads was examined (FIG. 4). COS-7 cells were transfected with the indicated combination of plasmids and subjected to immunoprecipitation followed by Western blot detection. Expression levels of Smad2 (bottom), Smad4 (middle), and Smad6 (middle) were monitored.

| binding result [1] | binding result [2] | Binder |
| --- | --- | --- |
| no binding | – | FLAG-tagged Smad2 (other, not shown: small tags and cut ends, Expressed inside COS-7 cells; also called F-Smad2) SSILPFTPPVVKRLLGWKKSAGGSGGAGGGEQNGQEEKWCQKAVKSLVKKLKKTGRLDELEKAITTQNCNTKCVTIPSTCSEIWGLSTANTVDQWDTTGLYSFSEQTRSLDGRLQVSHRKGLPHVIYCRLWRWPDLHSHHELKAIENCEYAFNLKKDEVCVNPYHYQRVETPVLPPVLVPRHTEILTELPPLDDYTHSIPENTNFPAGIEPQSNYIPETPPPGYISEDGETSDQQLNQSMDTGSPAELSPTTLSPVNHSLDLQPVTYSEPAFWCSIAYYELNQRVGETFHASQPSLTVDGFTDPSNSERFCLGLLSNVNRNATVEMTRRHIGRGVRLYYIGGEVFAECLSDSAIFVQSPNCNQRYGWHPATVCKIPPGCNLKIFNNQEFAALLAQSVNQGFEAVYQLTRMCTIRMSFVKGWGAEYRRQTVTSTPCWIELHLNGPLQWLDKVLTQMGSPSVRCSSMS |
| – | no binding | Smad2 (epitope-tagged, heteromerization experiment of Example 4) (other, not shown: small tags and cut ends) SSILPFTPPVVKRLLGWKKSAGGSGGAGGGEQNGQEEKWCQKAVKSLVKKLKKTGRLDELEKAITTQNCNTKCVTIPSTCSEIWGLSTANTVDQWDTTGLYSFSEQTRSLDGRLQVSHRKGLPHVIYCRLWRWPDLHSHHELKAIENCEYAFNLKKDEVCVNPYHYQRVETPVLPPVLVPRHTEILTELPPLDDYTHSIPENTNFPAGIEPQSNYIPETPPPGYISEDGETSDQQLNQSMDTGSPAELSPTTLSPVNHSLDLQPVTYSEPAFWCSIAYYELNQRVGETFHASQPSLTVDGFTDPSNSERFCLGLLSNVNRNATVEMTRRHIGRGVRLYYIGGEVFAECLSDSAIFVQSPNCNQRYGWHPATVCKIPPGCNLKIFNNQEFAALLAQSVNQGFEAVYQLTRMCTIRMSFVKGWGAEYRRQTVTSTPCWIELHLNGPLQWLDKVLTQMGSPSVRCSSMS |
